Laboratory results from patent US20220267444A1 (CTTQ AKESO SHANGHAI BIOMED TECH, published 2022).

How the values were obtained:
[1] = molecular target: T1, Fc receptor FcγRIIIa_V158 (UniProt P08637 17-208); test: BLI (Fortebio Octet); sentence on Table 2, differs from the table's 6.12E-07
Procedure: (§1) 5 μg/mL FcγRIIIa_V158 was immobilized on the HIS1K sensor for 120 s. The sensor was equilibrated in a buffer for 60 s, and the binding of the immobilized FcγRIIIa_V158 on the sensor to the antibodies at concentrations of 31.25-500 nM (serial two-fold dilution) was determined for 60 s. The antibody was dissociated in the buffer for 60 s. The sensor was refreshed 4 times in 10 mM glycine pH 1.5, each for 5 s. The temperature was 30° C. and the frequency was 0.3 Hz. The data were analyzed by 1:1 model fitting to obtain affinity constants.

[2] = molecular target: T1, Fc receptor FcγRIIIa_V158; test: BLI (Fortebio Octet); FcγRIIIa_V158 on HIS1K sensor, antibody 31.25-500 nM; 1:1 fit
Procedure: as §1

Serum complement C1q = Serum complement C1q (UniProt P02745 23-245; P02746 28-253; P02747 29-245); test: BLI (Fortebio Octet), antibody immobilised on FAB2G sensor, C1q in solution at 1.25-20 nM
Serum complement C1q, sequence (P02745 23-245 limits assumed, chain 1 of 3): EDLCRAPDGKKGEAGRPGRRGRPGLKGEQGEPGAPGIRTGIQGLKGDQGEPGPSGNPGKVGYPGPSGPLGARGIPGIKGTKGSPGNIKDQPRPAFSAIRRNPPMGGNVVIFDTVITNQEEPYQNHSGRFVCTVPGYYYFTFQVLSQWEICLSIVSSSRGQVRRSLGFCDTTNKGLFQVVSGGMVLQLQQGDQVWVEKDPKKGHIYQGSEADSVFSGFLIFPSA
Serum complement C1q, sequence (P02746 28-253 limits assumed, chain 2 of 3): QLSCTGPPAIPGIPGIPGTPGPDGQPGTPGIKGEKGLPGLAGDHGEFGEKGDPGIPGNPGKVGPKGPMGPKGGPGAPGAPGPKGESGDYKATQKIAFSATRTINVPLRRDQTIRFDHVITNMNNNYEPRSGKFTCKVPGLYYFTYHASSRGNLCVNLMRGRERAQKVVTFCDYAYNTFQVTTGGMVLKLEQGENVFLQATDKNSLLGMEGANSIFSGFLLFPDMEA
Serum complement C1q, sequence (P02747 29-245 limits assumed, chain 3 of 3): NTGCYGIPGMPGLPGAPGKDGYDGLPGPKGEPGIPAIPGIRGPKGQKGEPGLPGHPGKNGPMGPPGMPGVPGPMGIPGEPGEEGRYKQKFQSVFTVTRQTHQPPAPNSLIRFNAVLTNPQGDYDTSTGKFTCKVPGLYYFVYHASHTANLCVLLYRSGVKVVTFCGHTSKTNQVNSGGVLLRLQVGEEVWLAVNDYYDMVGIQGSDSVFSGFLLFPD
Procedure: 50 μg/mL antibody was immobilized on the FAB2G sensor at an immobilization height of about 2.0 nm. The sensor was equilibrated in a buffer for 60 s for blocking, and the binding of the immobilized antibody on the sensor to the antigen C1q at concentrations of 1.25-20 nM (serial two-fold dilution) was determined for 60 s. The antigen and antibody were dissociated in the buffer for 60 s. The sensor was refreshed 4 times in 10 mM glycine pH 1.7, each for 5 s. The shaking speed of the sample plate was 1000 rpm, the temperature was 30° C. and the frequency was 0.6 Hz. The data were analyzed by 1:1 model fitting to obtain affinity constants. The data acquisition software was Fortebio Data Acquisition 7.0, and the data analysis software was Fortebio Data Analysis 7.0.

Fc receptor FcγRIIb = molecular target: T2, Fc receptor FcγRIIb (human, UniProt P31994 43-217); test: BLI (Fortebio Octet), hFcγRIIb-his immobilised on NTA sensor, antibody in solution at 12.5-200 nM
T2 construct: also called CD32b; hFcγRIIb-his; not shown: his tag named in 'hFcγRIIb-his'
T2 sequence (looked up): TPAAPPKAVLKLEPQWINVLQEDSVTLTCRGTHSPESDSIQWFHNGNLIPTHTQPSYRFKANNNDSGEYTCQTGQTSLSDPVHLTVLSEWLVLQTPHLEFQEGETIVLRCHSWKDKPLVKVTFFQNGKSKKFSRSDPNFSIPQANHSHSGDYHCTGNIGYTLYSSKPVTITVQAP
Procedure: 5 μg/mL hFcγRIIb-his was immobilized on the NTA sensor at an immobilization height of about 1.0 nm. The sensor was equilibrated in a buffer of 0.02% Tween-20, 0.02% casein and 0.1% BSA in PBS, pH 7.4 for 300 s of blocking, and the binding of the immobilized hFcγRIIb-his on the sensor to the antibodies at concentrations of 12.5-200 nM (serial two-fold dilution) was determined for 60 s. The antibody was dissociated in the buffer for 60 s. The sensor was refreshed in 10 mM glycine pH 1.7 and […] nickel sulfate. The temperature was 30° C. and the frequency was 0.6 Hz. The data were analyzed by 1:1 model fitting to obtain affinity constants.

[3] = molecular target: Fc receptor FcγRIIIa_F158 (UniProt P08637 17-208); test: BLI (Fortebio Octet), FcγRIIIa_F158 immobilised on HIS1K sensor, antibody in solution at 31.25-500 nM
Fc receptor FcγRIIIa_F158, sequence (P08637 17-208 limits assumed): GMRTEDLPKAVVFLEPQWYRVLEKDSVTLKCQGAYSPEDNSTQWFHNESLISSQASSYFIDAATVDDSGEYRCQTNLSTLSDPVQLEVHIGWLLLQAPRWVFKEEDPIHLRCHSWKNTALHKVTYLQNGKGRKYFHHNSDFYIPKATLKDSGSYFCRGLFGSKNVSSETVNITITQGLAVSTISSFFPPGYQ
Procedure: as §1, with “FcγRIIIa_F158” for “FcγRIIIa_V158”

T1 sequence (P08637 17-208 F176V limits assumed): as the sequence (P08637 17-208 limits assumed) above, with F160V counted along it

- Kd [1]: 621 nM
- Kd [2]: 612 nM
- koff [2]: 0.0824 s⁻¹
- kon [2]: 135000 M⁻¹ s⁻¹
- binding result (Serum complement C1q): no binding (tested: 20 nM)
- binding result (Fc receptor FcγRIIb): no binding (tested: 200 nM)
- binding result [3]: no binding (tested: 500 nM)
B1: 14C12H1L1(hG1DM) (antibody, human IgG1, kappa, L234A L235A)
heavy: not shown
light: DIQMTQSPSSMSASVGDRVTFTCRASQDINTYLSWFQQKPGKSPKTLIYRANRLVSGVPSRFSGSGSGQDYTLTISSLQPEDMATYYCLQYDEFPLTFGAGTKLELKRTVAAPSVFIFPPSDEQLKSGTASVVCLLNNFYPREAKVQWKVDNALQSGNSQESVTEQDSKDSTYSLSSTLTLSKADYEKHKVYACEVTHQGLSSPVTKSFNRGEC
notes: Humanized anti-PD-1 IgG1 mutant of 14C12H1L1(hG1WT) with L234A and L235A in the heavy chain
